Bridge positions count the residues as written; N and C are the ends. Square brackets hold non-standard residues; d marks the D form. Phe(4-COOH) = N[C@@H](Cc1ccc(C(=O)O)cc1)C(=O)O; NMeR = CN[C@@H](CCCNC(=N)N)C(=O)O; Pen = CC(C)(S)[C@H](N)C(=O)O
Target: T1, α4β1 (R&D Systems #5668-A4) (UniProt P13612 34-977; P05556 21-728)
T1 construct: bought; also called soluble α4β1
Assay: α4β1-VCAM competition ELISA
Protocol: The solution was removed by shaking and then blocked with 250 ul of 1% BSA in 1×PBS per well. The wells were then incubated at room temperature for 1 hr with shaking. Each well was then washed once with wash buffer (50 mM Tris-HCl pH7.6, 100 mM NaCL, 1 mM MnCl2 or MgCl2, 0.05% Tween-20). 25 ul of serial dilutions of peptides starting at 200 μM in assay buffer (Assay buffer: 50 mM Tris-HCl pH7.6, 100 mM NaCl, 1 mM MnCl2 or MgCl2, 0.05% Tween-20) was added to each well. Additionally, 25 ul of α4β1 (R&D Systems #5668-A4) was added to each well at a fixed concentration of 120 nM. The final peptide and α4β1 concentrations were 100 μM and 60 nM, respectively. The plates were then incubated at 37° C. for 2 hr. The solution was then removed by shaking, and each well was washed three times with wash buffer. 50 ul of 9F10 antibody at 4 ug/ml (purified mouse anti-human CD49d, BD Bioscience Cat#555502) was then added to each well, and the plate was incubated at room temperature for 1 hr with shaking. The solution was again removed by shaking, and each well was washed three times with wash buffer. 50 ul of peroxidase-conjugated AffiniPure Goat anti-mouse IgG (Jackson immune research cat #115-035-003) diluted in 1:5000 in assay buffer was added to each well. The plate was incubated at room temperature for 30 min with shaking. […] The reaction was stepped with 2N H₂SO₄ and absorbance was read at 450 nm.

IC50: > 100 nM
B1: SEQ ID NO 129 (peptide)
peptide: Ac-[Pen][NMeR]SDTL[Pen][Phe(4-COOH)]E[dK]-NH2
modifications: disulfide 1-7; not fully specified (residue 10); printed as (Ac-Pen-(N-Me-R)-S-D-T-L-Pen-F(4-COOH)-E-k-NH2)2-DIG; also: homodimer of two subunits joined by DIG linker

— US20160159862A1 (PROTAGONIST THERAPEUTICS, published 2016)
